From publication PMC11667269 (Journal for Immunotherapy of Cancer, 2024) come the findings set out here.

The target of assay [1] is human CD79b (hCD79b) immobilised for surface plasmon resonance (Homo sapiens, UniProt P40259). Put plainly: SPR.
The target in assay [2] is CD19 expressed on K562 cells (K562-CD19) (Homo sapiens, UniProt P15391). Put plainly: flow cytometry on cells.
Sequence of CD19 expressed on K562 cells (K562-CD19) (P15391 20-556): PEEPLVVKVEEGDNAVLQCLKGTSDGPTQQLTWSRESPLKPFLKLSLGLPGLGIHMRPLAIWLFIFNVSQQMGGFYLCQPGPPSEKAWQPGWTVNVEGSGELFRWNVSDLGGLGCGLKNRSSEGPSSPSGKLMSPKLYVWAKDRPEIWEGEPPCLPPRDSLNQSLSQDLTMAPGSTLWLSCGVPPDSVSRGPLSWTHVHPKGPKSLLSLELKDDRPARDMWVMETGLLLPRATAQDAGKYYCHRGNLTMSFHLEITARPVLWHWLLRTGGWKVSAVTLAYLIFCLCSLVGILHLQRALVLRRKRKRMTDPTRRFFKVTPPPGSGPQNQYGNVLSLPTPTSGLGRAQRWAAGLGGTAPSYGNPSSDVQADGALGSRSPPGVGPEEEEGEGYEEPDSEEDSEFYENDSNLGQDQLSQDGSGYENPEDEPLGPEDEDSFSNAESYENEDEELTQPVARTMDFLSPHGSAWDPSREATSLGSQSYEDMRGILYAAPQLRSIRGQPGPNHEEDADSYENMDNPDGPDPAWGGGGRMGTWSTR

Sequence of human CD79b (hCD79b) immobilised for surface plasmon resonance (P40259 29-229): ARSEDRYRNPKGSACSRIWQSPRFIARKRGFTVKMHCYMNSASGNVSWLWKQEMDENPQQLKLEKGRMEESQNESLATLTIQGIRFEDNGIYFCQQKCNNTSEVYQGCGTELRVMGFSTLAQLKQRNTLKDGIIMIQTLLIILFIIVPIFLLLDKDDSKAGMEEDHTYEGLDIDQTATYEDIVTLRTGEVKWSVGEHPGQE

B1: CARLY2 monoclonal murine antibody against CD79b (mouse monoclonal IgG1 CD79b.1.50) (antibody, V domains shown)
VH: QVQLQQPGAELVRPGASVKLSCKASGYTFTTYWMNWVKQRPGQGLEWIGMIDPSDSETHYNQMFKDKATLTVDKSSTTAYMQLSSLTSEDSAVYYCARTLSYWGQGTLVTVSA
VL: not shown
As for B1, the binding result in assay [1] is “binds”; in assay [2], “no binding”.
